Results from patent publication US20170145086A1.

What was measured:
[1] = biological target: HA-GCN4 hAPRIL (amino acid residues 105-250) (human) (UniProt O75888); test: blocking ELISA; blocked: APRIL binding to TACI-Fc
[2] = biological target: HA-GCN4 hAPRIL (amino acid residues 105-250) (human) (UniProt O75888); test: indirect ELISA, purified antibody, 3-parameter fit
[3] = biological target: HA-GCN4 hAPRIL (amino acid residues 105-250) (human) (UniProt O75888); test: blocking ELISA, 4-parameter fit; blocked: human APRIL binding to human BCMA-Fc
[4] = biological target: HA-GCN4 hAPRIL (amino acid residues 105-250) (human) (UniProt O75888); test: blocking ELISA, 4-parameter fit; blocked: human APRIL binding to human TACI-Fc
[5] = biological target: HA-GCN4 hAPRIL (amino acid residues 105-250) (human) (UniProt O75888); test: blocking ELISA; blocked: human APRIL binding to human TACI-Fc
[6] = biological target: HA-GCN4 hAPRIL (amino acid residues 105-250) (human) (UniProt O75888); test: blocking ELISA; blocked: human APRIL binding to human BCMA-Fc

Sequence of HA-GCN4 hAPRIL (amino acid residues 105-250) (human) (O75888 105-250): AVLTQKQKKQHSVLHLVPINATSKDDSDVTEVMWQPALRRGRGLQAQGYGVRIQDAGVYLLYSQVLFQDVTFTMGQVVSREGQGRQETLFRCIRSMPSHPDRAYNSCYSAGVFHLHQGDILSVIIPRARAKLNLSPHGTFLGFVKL

B1: 0201 (antibody, from another filing)
scFv: EVQLVQSGAEVKKPGASVKVSCKTSGYTFTDNYMHWVRQAPGQGLEWMGWISPNSSTTLYAQKFRGRVTLTRDTSVSTAYMELSGLDSDDTALYFCARGGRLAGSTVFTPAFEYWGRGTMVTVSSGGGGSGGGGSGGGGSAQAVLTQPSSVSEAPRQRVTISCSGSSSNIGNNAVKWYQQLPGKAPKLLIYYDDLLPSGVSDRFSGSKSGTSASLAISGLQSEDEADYYCAAWDDSLNGYVFGTGTKVTVLG
IC50 [1]: 0.204 µg/mL | EC50 [2]: 0.0104 µg/mL | IC50 [3]: 3.14 nM | IC50 [4]: 2.85 nM | % Inhibition [5]: 99% | % Inhibition [6]: 99%
